Test results reported in patent US8822407B2, “Preparation of conjugates comprising adenine derivatives and allergenic proteins and their use for specific immunotherapy of allengenic diseases” (Universita' Degli Studi di Firenze, priority 2010, dated 2014).

B1: nDer p2: purified natural allergen Der p2, major allergen from the house dust mite Dermatophagoides pteronyssinus (protein, UniProt P49278 18-146, looked up)
Mite group 2 allergen Der p 2: DQVDVKDCANHEIKKVLVPGCHGSEPCIIHRGKPFQLEAVFEANQNTKTAKIEIKASIDGLEVDVPGIDPNACHYMKCPLVKGQQYDIKYTWNVPKIAPKSENVVVTVKVMGDDGVLACAIATHAKIRD
modifications: natural purified
notes: purified natural allergen Der p2, major allergen from the house dust mite Dermatophagoides pteronyssinus

What was measured:
Assay type in all cases: cell-based, human
[1] = system: allergen-specific T cell lines; test: Functional phenotype of allergen-specific T cell lines; conditions: SA-26E 0.085 μg/ml, alone or mixed with nDer p2 10 μg/ml
Description: Mononuclear cells from 10 atopic donors with sensitization towards Dermatophagoides pteronyssinus have been isolated by density gradient and 1×10^6 cells cultured in 2 ml complete medium plus 5% autologous serum in the presence of DP or nDer p2 allergens or their respective conjugates (DP-conj or nDer p2-conj) (all at 10 μg/ml) in 24 flat-bottomed plates (Costar). […] After 6 d incubation and addition of rIL-2 (Proleukin) (25 UI/ml), T cell blasts are further expanded by the addition of medium, fresh 5% autologous serum and 25 UI/ml rIL-2 every three days. After 15 d culture, T cell blasts from single cultures are collected, washed with sterile PBS, counted and used to assess allergen specificity, phenotype and function.
To assess allergen-specificity, 1×10^5 T cell blasts are cultured in 96 U-bottomed plates in 0.2 ml final volume in medium plus 5% autologous serum, 1×10^5 autologous irradiated (9000 R) mononuclear cells as APCs, DP or nDer p2 (10 μg/ml) and, after 3 d incubation, tritiated thymidine (3HTdR) (Amersham) is added. After further 16 hr incubation, single cultures are transferred on paper filters through the use of an Harvester apparatus (Tomtec) and radioactivity measured in a β-counter. […]

CRTH2 cells = test: Phenotype of allergen-specific CRTH2 cells; conditions: allergen 10 μg/ml, PMA and ionomicin
Description: Mononuclear cells from peripheral blood (MNC) are isolated by density gradient (Ficoll-Hypaque) using buffy coats from Dermatophagoides pteronyssinus-sensitized donors (Servizio Immunotrasfusionale e terapie cellulari, Azienda Ospedaliero Universitaria Pediatrica A. Meyer, Firenze). 500×10^6 MNC are separated by the addition of 500 μl anti-CRTH2 monoclonal antibody for 20 min at room temperature, then extensively washed and incubated again with a secondary polyclonal antibody bound to iron microbeads and finally positively selected on a magnetic column (LS column). 10×10^6 cells are recovered by positive selection, extensively washed with sterile calcium and magnesium-free PBS buffer and cultured at the concentration 1×10^6/ml/well in complete medium plus 5% human AB serum in 24-flat bottomed plates. As stimulants, unconjugated allergens (DP or nDer p2) or conjugates (DP-conj or nDer p2-conj) (all at 10 μg/ml) have been used. Cultures have been incubated for 6 days at 37° C. in 5% CO2 humidified atmosphere and further expanded with rIL-2 25 UI/ml until 14 days when T cell blasts are collected, extensively washed, counted, adjusted at 1×10^6/ml concentration and polyclonally stimulated with PMA and ionomicin as already described to assess the intracellular production of IL-4 and IFN-gamma.

[2] = system: allergen-specific T cell clones; test: Functional phenotype of allergen-specific T cell clones; conditions: for Clonal Efficiency (%): T cell lines derived in the presence of the stimulus
Source text: For the functional analysis of T cell clones specific for nDer p2 and nDer p2-con j, T cell lines are initially derived from MNC of two atopic donors (G. E. and M. A.) affected by bronchial asthma and allergic rhinitis and sensitized to Dermatophagoides pteronyssinus, in the presence of nDer p2- or its respective conjugate nDer p2-conj. […] 28 allergen-specific T cell clones are obtained from T cell lines specific for nDer p2 from donor two and 37 from donor one whereas 28 clones are obtained from T cell lines derived in the presence of nDer p2-conj from both donors.
The allergen-specific clones obtained in the different experimental conditions have been then assessed for their ability to produce IL-4 ([…]) and IFN-gamma (pg/ml) in the culture supernatants after polyclonal stimulation with PMA and anti-CD3 monoclonal antibody.

Row | Molecule | modification of the cellular phenotype of allergen-specific T cells (TH2 towards TH1/TH0) [1] | % of cells expressing IFN-gamma+ (CRTH2 cells; Donor #3, CRTH2 cells) | % of cells expressing IL-4+ (CRTH2 cells; Donor #3, CRTH2 cells) | % of cells expressing IL-4+ IFN-gamma+ (CRTH2 cells; Donor #3, CRTH2 cells) | % of cells expressing IFN-gamma+ (CRTH2 cells; Donor #4, CRTH2 cells) | % of cells expressing IL-4+ (CRTH2 cells; Donor #4, CRTH2 cells) | % of cells expressing IL-4+ IFN-gamma+ (CRTH2 cells; Donor #4, CRTH2 cells) | Clonal Efficiency (%) ([2]; Donor one) | Clonal Efficiency (%) ([2]; Donor two) | clones producing IL-4 alone ([2]; donor one, PMA and anti-CD3) | clones producing IL-4 together with IFN-gamma (TH0 phenotype) ([2]; donor one, PMA and anti-CD3) | clones able to produce IL-4 alone or together with IFN-gamma ([2]; donor two, PMA and anti-CD3)
1 | Nc1nc(SCCCC(=O)ON2C(=O)CCC2=O)nc2c1nc(O)n2Cc1ccccc1 [SA-26E, 4-(6-Amino-9-benzyl-8-hydroxy-9H-purin-2-ylsulfanyl)-butyric acid 2,5-dioxo-pyrrolidin-1-yl ester] | inactive | – | – | – | – | – | – | – | – | – | – | –
2 | B1 | – | 5.8% | 47.6% | 1.3% | 2.0% | 78.2% | 2.3% | 30% | 24% | 56.7% | 29.7% | 75%
